Experimental data from article PMC7054389, “Genome-Wide Analysis of the Glucose-6-Phosphate Dehydrogenase Family in Soybean and Functional Identification of GmG6PDH2 Involvement in Salt Stress” (Frontiers in Plant Science, 2020).

Substrate: NC(=O)c1ccc[n+]([C@@H]2O[C@H](COP(=O)(O)OP(=O)(O)OC[C@H]3O[C@@H](n4cnc5c(N)ncnc54)[C@H](OP(=O)(O)O)[C@@H]3O)[C@@H](O)[C@H]2O)c1
Assay: NADP+ reduction, Eadie-Hofstee plot, crude E. coli extract
Type: biochemical, Glycine max
Settings: co-substrate G6P, assay as for plant extracts: 50 mM Hepes-Tris pH 7.8, 3.3 mM MgCl2

B1: GmG6PDH2 (Glycine max) (protein)
chain: MGTSEWHIERRSSFGTESPLAREAGNVPETGSLSIVVLGASGDLAKKKTFPALFHLYRQGFLPADEVHIFGYARTKISDDELRNRLRGYLVPNKGASPQLLEDVEKFLQLIKYVSGSYDSEDGFRLLDKEISEHEYLKKSVEGLSRRLFYLALPPSVYPSVCKMIKTCCMNKSDLGGWTRVVVEKPFGKDLESAEELSTEIGKLFEEPQIYRIDHYLGKELVQNLLVLRFANRFFLPLWNRDNIDNVQIVFREDFGTDGRGGYFDQYGIIRDIIQNHLLQVLCLVAMEKPVSLRPEHIRDEKVKVLESVLPIRDDEVVLGQYEGYKDDPTVPDKSNTPTFATVILRIHNERWEGVPFILKAGKALNSRKAEIRVQFKDVPGDIFKCKKQGRNEFVIRLQPLEAMYMKLTVKQPGLEMSTVQSELDLSYGQRYQGVTIPEAYERLILDTIKGDQQHFVRRDELKASWQIFTPLLHRIDEGEFKPLPYKPGSRGPAEADQLLEKAGYVQTHGYIWIPPTL
notes: full-length CDS in pET32a(+), His-tagged, E. coli Rosetta; crude lysate supernatant, not purified
Km: 0.033 mM
